Data taken from US6699839B1, “Lantibiotic from Streptococcus mutans, method of production and use thereof” (Universite Laval, priority 1997, dated 2004).

Tests used:
[1] = system: Micrococcus luteus ATCC 272; assay: Sensitivity titer on a lawn of the tested strain (control strain); format: cell-based; conditions: Micrococcus luteus ATCC 272 (control); antibiotic resistance: None
Protocol: (§1) Trypticase Soy Agar (Difco Laboratories, Detroit, Mich.) plates enriched with 0.3% yeast extract were overlaid with 5 ml of melted TSAYE containing a standardized suspension (0.2 ml of an exponentially growing culture at an optical density of 0.1 at 600 nm) of Micrococcus luteus ATCC 272 (ATCC, Rockville, Md.). In order to assess the activity of mutacin samples, two-fold dilutions were prepared in 0.11% TFA (Sigma Chemical Co., St. Louis, Mo.) and 5 μl of each dilution deposited on top of the indicator plates. Mutacin activity was expressed in arbitrary units, which correspond to the reciprocal of the last dilution giving a clear inhibition zone against M. luteus after 24 h of incubation at 37° C. under aerobic conditions (Parrot et al., 1989, Can. J. Microbiol. 35:366-372).
(§2) The sensitivity of multi-drug resistant strains to mutacin B-Ny266 purified to homogeneity was assessed. In parallel the sensitivity of these strains to nisin was determined.

[2] = system: Staphylococcus epidermidis 1656; assay: Sensitivity titer of multi-drug resistant staphylococci clinical isolates; format: cell-based; conditions: resistant to AM-K-S-CF-E-P-Cl-TE
Protocol: as §1, §2

[3] = system: Staphylococcus epidermidis 3176; assay: as above; format: cell-based; conditions: resistant to AM-GM-K-CF-E-P-Cl
Protocol: as §1, §2

[4] = system: Staphylococcus haemolyticus 2344; assay: as above; format: cell-based; conditions: resistant to AM-K-S-CF-E-P-Cl-TE
Protocol: as §1, §2

Neisseria subflava = assay: Growth inhibition; format: cell-based
[5] = system: Clostridium bifermentants; assay: Growth inhibition; format: cell-based
Bacillus cereus = assay: Growth inhibition; format: cell-based
[6] = system: Flavobacterium capsulatum; assay: Growth inhibition; format: cell-based; conditions: a Gram-negative strain
[7] = Heat stability of activity; format: physicochemical
[8] = Stability of activity to enzymes; format: physicochemical
[9] = Polarity calculation from RP-HPLC elution; format: physicochemical; conditions: calculated from elution at 33.3% acetonitrile, RP-HPLC C18 (Snyder formula)
Protocol: The polarity was calculated from the percentage of acetonitrile at which the substance eluted according to the formula given by Snyder (Snyder, L. R., 1978, Chromatogr. Sci. 16:223-234).

Substance: Mutacin B-Ny266: type A lantibiotic produced by Streptococcus mutans B-Ny266; F-K-A-W-U-F-A-Abu-P-G-A-A-K-O-G-A-F-N-U-Y-A-SADC
- titer (highest dilution producing an inhibitory zone on a lawn of the tested strain) [1]: 64
- titer (highest dilution producing an inhibitory zone on a lawn of the tested strain) [2]: 16
- titer (highest dilution producing an inhibitory zone on a lawn of the tested strain) [3]: 16
- titer (highest dilution producing an inhibitory zone on a lawn of the tested strain) [4]: 16
- growth inhibition (Neisseria subflava): inhibits the growth
- growth inhibition [5]: inhibits the growth
- growth inhibition (Bacillus cereus): inhibits the growth
- growth inhibition [6]: inhibit
- resistance to temperature ([7]; 100° C. for 30 min): resistant
- activity after heat treatment ([7]; 121° C. for 30 min): destroyed
- activity after enzyme treatment ([8]; alpha-chymotrypsin): destroyed
- resistance to enzymes ([8]; many enzymes): resistant
- activity after enzyme treatment ([8]; papain): destroyed
- activity after enzyme treatment ([8]; pronase E): destroyed
- activity after enzyme treatment ([8]; proteinase K): destroyed
- activity after enzyme treatment ([8]; trypsin): destroyed
- polarity [9]: 8.067
